Measured values published in a protein production outcome set (Wang et al. 2014).

Test: label from the status in PepcDB records

Row | Sequence | protein production
1 | MKQEFVAAIEIDGTGRIHVTPGESQFPYIYREAMEVSWNESTRSLHSPVPREWSYAQWLQQIFAAASEQGVKLVLGPNTRWVNVPNELRAELTHAAAA | not failed
2 | MSLKISLENVGCASQIGKRKENEDRFDFAQLTDEVLYFAVYDGHGGPAAADFCHTHMEKCIMDLLPKEKNLETLLTLAFLEIDKAFSSHARLSADATLLTSGTTATVALLRDGIELVVASVGDSRAILCRKGKPMKLTIDHTPERKDEKERIKKCGGFVAWNSLGQPHVNGRLAMTRSIGDLDLKTSGVIAEPETKRIKLHHADDSFLVLTTDGINFMVNSQEICDFVNQCHDPNEAAHAVTEQAIQYGTEDNSTAVVVPFGAWGKEGHHHHHH | not failed
3 | MTAGHGIAALPGTMRVFERGWLSSNNILFFDDDAHGGCALVDSGYLTHAPQTVALARHALQGRPLRRLLNTHLHADHCGGNAALQAAYGCRIRVPAAQIGDVRRWDTDALSYRPTGQQCERFTLPEGDTAEAGLADGMTARLGGLDWQVISAPGHDPHAVILYSPDTRVLLSADALWERGFGVIFPELEGESGFAEQEAILACIARLGARVVVPGHGRPFTEVDAAIDAARGRLAYLRADPERNALHALRVLVKFKLLEQQAMTREALAAWFAQASLIPRLQARFFAATPLPALLEATVAALVKAGAAAVEATRIVNRG | failed
4 | EEDWVLPSEVEVLESIYLDELQVIKGNGRTSPWEIYITLHPATAEDQDSQYVCFTLVLQVPAEYPHEVPQISIRNPRGLSDEQIHTILQVLGHVAKAGLGTAMLYELIEKGKEILTDNNIPHGQ | not failed
5 | MAELYVKPGNKERGWNDPPQFSYGLQTQTGGPKRTPLTKRVAAPQDGSPRAPETSGPPPVDHPPPSSKASRPPPMGSCPATGVEPPSSPVIESETLIEDVLRPLEQALEDCHGHTKKQVCDDISRRLALLREQWAGGKLSIPVKKRMALLVQELLHHQWDAADDIHRSLMVDHVTEVSQWMVGVKRLIAEKKSLSSEETKEEKFTVEPENQTIPGFQQPS | not failed
6 | MSELITYHAEDGIATLTLNNGKVNAISPDVITAFNAALDRATEERAVVIITGQPGILSGGYDLKVMTRGPQEAISLVTAGSTLARRLLSHPFPVVVACPGNAVAKGAFLLLSADYRIGVEGPYKVCLNEVQIGMTMHHAGIELARDRLRRSAFHRSVINAEVFDPQGAVDAGFLDKVVPAEQLQEAAMTAARELKKLN | failed
7 | MASNRGAGGSLYGGADPYRSREGLSTRNASGSEEIQLRIDPMHSDLDDEILGLHGQIAQEIGSEAKSQRDFLDELQMTLIRAQAGVKNNIRKLNLSIIRSGNNHIMHVVLFALLLFFILYMWSKMFKR | failed
8 | MNRNLLLFASGSFVSLIGTRIYQVALAWWLYSKTGSSEYVGLFMISSFLPAIIVSPFAGTVVDRHSRRNMMVVMDILRGVLFMYLFLMEYFSELTMALLLIVTVLVSVFDSFFNPAVDSLLPDLVRKENLVRANSLYRLLKNLSKILGPALGSLLLKVVGLAGVILINSLSFLISGIFEMFIKVEEKHLKKVSKERNMWQDIKSALLYIRSVRFILVTILVIAIMNFFTGSMHVLLPEHVSKLGKSEWVYGTLMSMLSFGGLIVTFLMATIRTRASVKTLGLNLVGYGLAVFVFAMTGNHWLMFAMYFLIGIFQTLFNINVITLLQLAIPEEMRGKIFSLISAVSFSLLPVSYGFFGFLSSYVATAHIFITTSMALIAGGVLISLQRFEG | failed
9 | MPSSAFPDTRMTLACRRMAGGASALPSFRMGAGLAFQPGLENAMSTVQDYIVADIGLADYGRKELDIAETEMPGLMSCRSELGETKPLKGARISGSLHMTIQTAVLIETLTALGAEVRWASCNIFSTQDHAAAAIAASGVPVFAVKGESLTEYWDYTDRIFQWTDGGQSNMILDDGGDATMYILLGARAEAGENVLVNPSSEEEEILFAQIKKRMAATPGFFTKQRDAIKGVTEETTTGVNRLYQLSQKGLLPFPAINVNDSVTKSKFDNKYGCKESLVDGIRRATDVMMAGKVAVVCGYGDVGKGCAASLIGAGARVKVTEVDPICALQAAMDGFEVVRLEDVVKTADIFITTTGNKDVIRIEHMREMKDMAIVGNIGHFDNEIQVVALKNLKWVNIKPQVDMIEFPAGNRMILLSEGRLLNLGNATGHPSFVMSASFTNQVLAQIELFTKPDAYKNQVYVLPKHLDEKVARLHLEKLGVRLTELSDEQASYIGVTPSGPFKADHYRY | failed
10 | MTHPLYIFDLDETLINGDCAMIWNEFLVDKGIVTTPDFLEEDKRLMTLYSRGLMDMEDYLIFAMSPLKNIPTDQVEILIEECVNERILPLLFPEAKILIHQLKADNVDMIVISASVSFLVKIVAKNIGIKHAIGIDLKEKNGCYTRHILGVPSYREGKVSRLTEWLNGGDKTYSALHFYTDSINDLPLCLYADHTYLVNPCEQLAVYSKKKNWPILAWGSQ | failed
11 | MTQLPPAIFLMGPTAAGKTDLAIELTKVLPCELISVDSALVYRGMDIGTAKPSRELLAQFPHRLIDILDPAESYSAADFRTDALAAMADITARGKIPLLVGGTMLYYKALLEGLADMPAADPQVRAELEEEAARLGWQALHDQLAAVDPESAARIHPNDPQRLTRALEVYRVSGLTMTAHRQRQLAQSTEAGASGRSQLPYTVANLAIAPANRQVLHQRIAQRFTQMLEQGFIDEVVALRSRSDLHAGLPSIRAVGYRQVWDHLDGKLTSAEMQERGIIATRQLAKRQFTWLRSWADLQWLDSLDCDNLPRALKYLGTISILSLEHHHHHH | failed
12 | MPAYVFSKESFLKFLEGHLEDDVVVVVSSDVTDFCKKLSESMVGEKEYCFAEFAFPADIFDADEDEIDEMMKYAIVFVEKEKLSEAGRNAIR | not failed
13 | MKKTMAKSLSVIIPACNEIDTISDVIQSVKGLNPLEIIVVANGCTDGTETVAEHLGCKVLRYTEKLGNDVGRAAGAKEAIGDVLLFIDGDFAIQTSKLQLFLNPILYNQADVVLNNLDALFLKRQKPNSITVWRQILNSILEREELKIDSLLAVPHALTKEVVQSIGYECFVNPILAHLRLVQGKWRISRHCAIDVITPNKFRPTEHAAYGTDLSPSEKRMIGDHIEAVAERIVGSDERGGYCDGNRKRDSVYHTLDFEDFYQGWGVTSNLYKGKQLSVIIPVQNEEKTIGNVIEEVRKIEPFEIIVVVNGSSDQTATIAKDKGATTIVYKEALGNDVGRSLGTYFAKGEIVLFIDGDFVIPASELYPFAKAIADGTDVALNDLNHYLDLRVPLHLVTAFKYALNLACDRKDLGVGSLVAVPNAFSRKCLKQIGYRSLLAPCVAQVKAILSGFEVACVSRVEVDKMNRIRPSEHLAKIGHPPAVLRIIGDHIEGLEQLIGLTGSRGGFHDGNRKRDIL | failed
14 | MHRVHGTLHASFTIECRNMFKRFFLALIGVGILLSESTQASESPPYSMVLLTENFPPFNMAVDGKNFAQENNIDGIAAEVVREMFKRANIGYSMTLRFPWDRVYKLALDKPGYGVFSTTRLPEREKLFKWIGPLGSYDWIMLARGDSPITLASLEQAKDYRIGAYKGDAIGERLNAMGLNPILMLRDRDNVKKLANGQIDLWAVGDPVGRYLAKLEGVSGFKTALRFNSAELYLAVNKSTPDEIVNRLQAALDQMRTEGWVDAVKARYQLEHHHHHH | not failed
15 | MDTVDLRHLDENLHHARTQFEVWARGRLSNLEEVQRTWQETTARVSRETETLVQRRTQFEAAAARLQERLEAEREELDALERGIAQLEARAAALPVRQQELEQEIAERRQEFERRRALLNACEEARRTRLLHLQKALVWYRDRLGLRFQRVGAASATEAGRVDGKVRVIFRHIDSRAPDREFAFTVYVDEDADLFRVEDCVPDIDVMKPTAGAANVRLAQMVETLNRTNDFGAFVAQMRRRFKAWVQMESTDQLAGRQA | failed
16 | DYFTTTNSIPPVITTNHRRKHSIEKFYRDQLGSIIWNEEDVGHQQVPEINKHGYRAAVKIIVIIDNMERKAAIQSRQSYDEALRYGAVLIFLPGIYEIDT | failed
17 | MSDKKTQTRARILGAATQALLERGAVEPSVGEVMGAAGLTVGGFYAHFQSKDALMLEAFEQLLGKRRELLGELDPGLSGKERRALAAAFYLSRKHRDAQVDAGCPLPATLAEVARLPEGFREVLSRHVEIMVTSLAESPEETDVALADLVLMIGGLALARALGPGELSDRVLRAAKQAVN | not failed
18 | MATIRKLRGRWQAQVRRRGVPPRAKSFDTKTAAERWARDLEAEADRSGWVADTRAAEKTTLGELLSRYANEVTPAKRGAVSEKARINSIVRCPISHRTLAKLTSSDVAGYRDERLKTVAPATVVRELNTISHAIEVATREWGLWVPRNPVKLVRRPPVPRGRTRRLKEGEEQRLLDACDRGRTPLLKPLIILAIETGMRRGELLDLRWEHIDLKRGVAHLPLTKNGDSRDVPLSCRAVQTLQELRSAGVRHDRVFSMTGNSVRLAFEHLRVRAGMSDLHFHDLRHEAISRLFEKGLNIAEVSAISGHRELKMLQRYTHLRAVDLVARLG | failed
19 | MADKAFHTRLINMRRDLHEHPELSFQEVETTKKIRRWLEEEQIEILDVPQLKTAVIAEIKGREDGPVIAIRADIDALPIQEQTNLPFASKVDGTMHACGHDFHTASIIGTAMLLNQRRAELKGTVRFIFQPAEEIAAGARKVLEAGVLNGVSAIFGMHNKPDLPVGTIGVKEGPLMASVDRFEIVIKGKGGHASIPNNSIDPIAAAGQIISGLQSVVSRNISSLQNAVVSITRVQAGTSWNVIPDQAEMEGTVRTFQKEARQAVPEHMRRVAEGIAAGYGAQAEFKWFPYLPSVQNDGTFLNAASEAAARLGYQTVHAEQSPGGEDFALYQEKIPGFFVWMGTNGTEEWHHPAFTLDEEALTVASQYFAELAVIVLETIK | not failed
20 | MNIVIAGAGEVGTHLAKMLSQEEQNIVLIDPNPKRLELAAMRSELLPQVGNPLSPSDLLQANVKYADLFISVMPEEADNILACALASRLGAGKTLARINNNEFLKPDMAQYFRDMGVHTMIYPELLAAREIVSTIKNPWARQYVELFDGALVLVGVKVREGAHIVGKYLHELTRTGNKIFHIVAIKRDLETIIPKGGTQVLHGDIVFFATAQNHLDEVRKLAGKDNPPVHKVVIMGGSRIAIRSIEMIPRNIQVAIIEKDKEKSMRISAIAPTNVQVYNGDGRDSDILIEAGLDQTDVFIALTENSETNVLACLGAKRFGVFKTIAKEENIDYISLADRLDIGTLINKKLLAAGSIYRIFLGEDTSTVKCLTLANADVAELVAHRGAPVTKRPVKDLNIPEGITFGGMVRNGVPQMIHGDTVIEPYDHVVVFCLNTPLNILKDFFG | failed
21 | TLLLCFIVAGLTGLGDNFTTISWFTFLDFRVQGDYLYFSPLAQSLDEGQWWRLVSPMLLHFGVLHLAMNSLWYWELGKRIELRQGPWALLGLTLLFSLVSNLAQHYTSGPSLFGGLSGVLYGLLGHIWLYQWLAPDRYFNLPKGVLVMMLIWLVVCLTGVVGTLGLGQIANAAHVGGLLIGCLTGLLGGALARRKLSA | failed
22 | IPSDGLTIPYGSGPKPIFRAQVGKKVYQSLINQATESVYITTPYLIIDYDLTETIKNAAMRGVDVRIITPYIPDKKFIQLVTRGAYPDLLSAGVRIYEYSPGFIHSKQMLVDEDFAVVGTINLDYRSLVHHYENAVLLYKTPSIREIARDFRNIFADSQEVYPHSIKTSWYQKLVKEIAQLFAPIL | failed
